Substrate in this data set: N=C(N)NCCCC(NC(=O)c1ccccc1)C(=O)Nc1ccc([N+](=O)[O-])cc1
Description: purified protein. To be noted: 50 mM Tris-HCl, pH 8.0, 37 °C (amidase assay).

B1: SGT (Streptomyces griseus trypsin) (Streptomyces griseus) (protein)
chain: VVGGTRAAQGEFPFMVRLSMGCGGALYAQDIVLTAAHCVSGSGNNTSITATGGVVDLQSSSAVKVRSTKVLQAPGYNGTGKDWALIKLAQPINQPTLKIATTTAYNQGTFTVAGWGANREGGSQQRYLLKANVPFVSDAACRSAYGNELVANEEICAGYPDTGGVDTCQGDSGGPMFRKDNADEWIQVGIVSWGYGCARPGYPGVYTEVSTFASAIASAARTL
Take B1: the Km is 7.88 ± 0.16 × 10^−2 mM.

The record behind these values is article PMC4794721, “Improved Production of Active Streptomyces griseus Trypsin with a Novel Auto-Catalyzed Strategy” (Scientific Reports, 2016).
